Source: patent US20100068151A1 (published 2010)

Target: T1, VEGFR-2 expressed on PAE/KDR cells (human, UniProt P35968 20-1356)
T1 construct: whole, on cells
Experiment: cell-binding assay, displacement of 125I-VEGF165 from PAE/KDR cells

T1 sequence (P35968 20-1356): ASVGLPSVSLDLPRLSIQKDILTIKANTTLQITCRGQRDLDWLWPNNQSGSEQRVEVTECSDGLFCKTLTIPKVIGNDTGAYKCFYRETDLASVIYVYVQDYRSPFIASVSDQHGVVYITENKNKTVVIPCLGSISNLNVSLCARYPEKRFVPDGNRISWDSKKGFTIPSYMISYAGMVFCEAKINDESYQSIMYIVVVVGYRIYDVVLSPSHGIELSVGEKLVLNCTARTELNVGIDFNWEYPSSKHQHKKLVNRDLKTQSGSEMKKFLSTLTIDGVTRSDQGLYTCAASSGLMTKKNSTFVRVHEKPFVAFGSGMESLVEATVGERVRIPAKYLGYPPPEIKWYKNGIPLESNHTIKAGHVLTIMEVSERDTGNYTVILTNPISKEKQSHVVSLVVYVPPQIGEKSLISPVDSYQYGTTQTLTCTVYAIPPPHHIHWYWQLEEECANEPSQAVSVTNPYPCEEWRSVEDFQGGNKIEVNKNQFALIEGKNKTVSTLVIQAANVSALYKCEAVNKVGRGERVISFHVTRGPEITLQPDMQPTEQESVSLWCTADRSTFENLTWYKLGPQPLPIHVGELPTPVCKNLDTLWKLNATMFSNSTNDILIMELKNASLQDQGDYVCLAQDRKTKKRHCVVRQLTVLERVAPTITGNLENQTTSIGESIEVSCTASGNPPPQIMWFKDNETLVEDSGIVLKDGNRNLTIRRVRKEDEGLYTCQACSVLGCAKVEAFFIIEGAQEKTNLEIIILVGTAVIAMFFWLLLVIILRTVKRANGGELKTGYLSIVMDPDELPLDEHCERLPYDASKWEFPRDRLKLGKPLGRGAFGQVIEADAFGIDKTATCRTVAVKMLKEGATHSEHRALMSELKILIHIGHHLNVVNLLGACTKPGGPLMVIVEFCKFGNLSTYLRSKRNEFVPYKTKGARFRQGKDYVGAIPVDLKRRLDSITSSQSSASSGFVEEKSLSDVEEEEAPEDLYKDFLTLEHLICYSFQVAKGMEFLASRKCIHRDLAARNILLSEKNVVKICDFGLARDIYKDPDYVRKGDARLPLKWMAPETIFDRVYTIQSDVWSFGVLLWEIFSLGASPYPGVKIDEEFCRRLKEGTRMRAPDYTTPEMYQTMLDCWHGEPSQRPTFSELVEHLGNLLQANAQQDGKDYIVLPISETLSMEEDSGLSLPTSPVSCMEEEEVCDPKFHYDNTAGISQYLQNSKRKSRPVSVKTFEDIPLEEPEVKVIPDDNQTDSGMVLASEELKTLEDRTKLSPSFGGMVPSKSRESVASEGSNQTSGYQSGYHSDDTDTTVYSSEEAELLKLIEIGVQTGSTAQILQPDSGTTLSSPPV

Row | Binder | IC50 [nM]
1 | VEGF121/rGel fusion toxin (other, Described as an 84-kDa fusion protein made as in Veenendaal et al., 2002; also called vasculature-targeting fusion protein) APMAEGGGQNHHEVVKFMDVYQRSYCHPIETLVDIFQEYPDEIEYIFKPSCVPLMRCGGCCNDEGLECVPTEESNITMQIMRIKPHQGQHIGEMSFLQHNKCECRPKKDRARQEKCDKPRRGGGGSGLDTVSFSTKGATYITYVNFLNELRVKLKPEGNSHGIPLLRKKCDDPGKCFVLVALSNDNGQLAEIAIDVTSVYVVGYQVRNRSYFFKDAPDAAYEGLFKNTIKTRLHFGGSYPSLEGEKAYRETTDLGIEPLRIGIKKLDENAIDNYKPTEIASSLLVVIQMVSEAARFTFIENQIRNNFQQRIRPANNTISLENKWGKLSFQIRTSGANGMFSEAVELERANGKKYYVTAVDQVKPKIALLKFVDKDPK | 24.5
2 | DOTA-VEGF121/rGel conjugate (other, DOTA chelator conjugated, 3.3±0.1 DOTA molecules per VEGF121/rGel molecule; sites not stated) APMAEGGGQNHHEVVKFMDVYQRSYCHPIETLVDIFQEYPDEIEYIFKPSCVPLMRCGGCCNDEGLECVPTEESNITMQIMRIKPHQGQHIGEMSFLQHNKCECRPKKDRARQEKCDKPRRGGGGSGLDTVSFSTKGATYITYVNFLNELRVKLKPEGNSHGIPLLRKKCDDPGKCFVLVALSNDNGQLAEIAIDVTSVYVVGYQVRNRSYFFKDAPDAAYEGLFKNTIKTRLHFGGSYPSLEGEKAYRETTDLGIEPLRIGIKKLDENAIDNYKPTEIASSLLVVIQMVSEAARFTFIENQIRNNFQQRIRPANNTISLENKWGKLSFQIRTSGANGMFSEAVELERANGKKYYVTAVDQVKPKIALLKFVDKDPK | 40.6
